Data as given in the supplement of paper PMC10567573.

B1: SLC35F2 (parent)
chain: SFMPLVIKVTSATSVNLGILTADL

Variants of: B1
Assay: protein stability index of a GFP-peptide fusion (GPS, HEK-293T) (PSI 1-6); higher = more stable
Details: c terminus: a fixed tail appended
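Note: lentivirally expressed fusions sorted by FACS into six bins by GFP to DsRed ratio, PSI derived from sequencing read proportions per bin multiplied by bin number.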

Protein stability index: each site, then its substitutions
K8: N 3.01; P 2.19; Q 2.87; R 3.26; S 3.16; T 3; V 3.52; W 2.13; Y 3.43
V9: A 2.07; C 3.06; D 1.78; E 1.58; F 3.51; G 2.17; H 1.52; I 3.17; K 1.48; L 4.15; N 2.39; P 1.7; Q 3.26; R 1.81; S 1.56; T 1.46; W 2.28; Y 3.58
T10: C 2.93; D 3.46; E 2.98; F 3.67; G 3.08; H 3.25; I 4.8; K 2.12; M 2.46; N 2.43; P 1.31; Q 3.38; R 2.69; S 2.65; V 3.4; W 3.57; Y 2.64
S11: A 4.19; C 2.19; D 2.91; E 2.8; F 4.62; I 4.08; K 2.9; L 1.96; M 3.94; N 4.93; Q 2.23; T 2.03; V 2.64
A12: C 4.33; D 2.82; E 3.09; F 2.25; G 3.33; H 2.37; I 2.85; K 4.17; L 3.32; M 2.9; N 2.58; P 1.22; Q 2.82; R 2.75; S 1.89; T 2.89; V 2.75; W 1.91; Y 1.73
T13: A 3.02; C 3.16; D 3.02; E 2.6; F 2.53; G 2.38; H 4; I 3.67; K 2.16; L 2.94; M 2.34; N 2.55; P 3.09; Q 2.25; R 3.63; S 2.59; V 2.43; W 2.75; Y 3.88
S14: A 2.47; C 3.32; F 2.94; H 1.79; L 2.15; M 2.72; N 3.45; P 2.44; Q 1.71; R 2.42; W 2.61
V15: A 3.38; C 2.21; D 3.98; F 3.58; G 2.91; H 2.88; I 1.93; K 3.59; L 3.01; M 3.77; N 2.58; P 2.73; R 3.44; S 3.78; T 3.48; W 4.14; Y 2.21
N16: A 2.18; C 3.4; D 2.94; E 2.55; F 3.69; G 2.93; H 2.74; I 4.17; K 3.43; L 3.94; M 3.88; Q 3.34; R 3.2; T 3.43; V 4.07; W 2.82; Y 3.46
L17: A 2.48; C 3.14; D 2.04; E 2.24; F 2.72; G 2.9; H 2.92; I 2.77; K 3.17; M 3.87; N 2.99; P 2.74; Q 3.52; R 2.5; S 2.85; T 2.56; V 2.44; W 3.32; Y 2.6
G18: A 2.54; C 3.82; D 3.2; E 2.91; F 3.03; H 3.1; I 3.72; K 2.9
